This data set deals with T1, BMC01 (uncultured bacterium (metagenome)).
T1 chain: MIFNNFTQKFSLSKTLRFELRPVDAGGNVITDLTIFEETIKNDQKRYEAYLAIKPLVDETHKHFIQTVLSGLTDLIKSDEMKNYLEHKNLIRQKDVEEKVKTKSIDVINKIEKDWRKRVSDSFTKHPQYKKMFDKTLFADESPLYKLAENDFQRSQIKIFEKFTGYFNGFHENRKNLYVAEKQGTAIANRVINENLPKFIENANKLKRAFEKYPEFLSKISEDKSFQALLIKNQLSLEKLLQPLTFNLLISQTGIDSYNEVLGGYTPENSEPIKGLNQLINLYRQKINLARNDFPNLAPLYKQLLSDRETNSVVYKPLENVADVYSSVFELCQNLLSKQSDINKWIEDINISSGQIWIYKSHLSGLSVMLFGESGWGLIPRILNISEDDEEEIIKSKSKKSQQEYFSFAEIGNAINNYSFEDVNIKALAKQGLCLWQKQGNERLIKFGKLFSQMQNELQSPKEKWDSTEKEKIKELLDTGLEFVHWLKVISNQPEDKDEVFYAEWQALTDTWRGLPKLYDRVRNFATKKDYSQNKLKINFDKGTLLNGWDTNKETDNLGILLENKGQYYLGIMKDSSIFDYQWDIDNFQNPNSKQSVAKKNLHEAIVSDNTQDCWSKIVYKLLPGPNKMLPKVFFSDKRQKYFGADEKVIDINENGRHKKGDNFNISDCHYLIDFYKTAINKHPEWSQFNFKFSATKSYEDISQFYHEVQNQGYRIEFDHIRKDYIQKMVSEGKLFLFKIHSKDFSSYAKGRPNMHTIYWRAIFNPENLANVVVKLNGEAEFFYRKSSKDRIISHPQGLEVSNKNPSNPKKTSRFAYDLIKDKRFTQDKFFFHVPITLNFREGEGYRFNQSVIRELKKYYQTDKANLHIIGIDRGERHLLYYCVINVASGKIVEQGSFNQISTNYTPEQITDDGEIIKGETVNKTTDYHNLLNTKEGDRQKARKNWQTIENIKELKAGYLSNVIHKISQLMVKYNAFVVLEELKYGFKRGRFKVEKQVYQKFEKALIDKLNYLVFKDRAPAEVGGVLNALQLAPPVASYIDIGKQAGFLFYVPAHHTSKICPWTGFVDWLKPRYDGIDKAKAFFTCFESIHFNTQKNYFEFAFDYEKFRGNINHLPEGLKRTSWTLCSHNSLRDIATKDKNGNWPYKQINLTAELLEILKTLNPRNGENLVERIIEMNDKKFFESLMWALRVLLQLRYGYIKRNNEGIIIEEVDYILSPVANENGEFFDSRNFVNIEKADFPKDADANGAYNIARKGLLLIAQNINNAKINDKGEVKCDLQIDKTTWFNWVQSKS
The data set is described as follows: cell_activity; PAM not stated; E. coli depletion, 30 C. The procedure, abridged: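 E. coli carrying arabinose-induced (0.2%) BMC nuclease, grown at 30° C., made electrocompetent and electroporated with 50-100 ng plasmid carrying gRNA against malQ. Transformants plated on selective M9-glucose agar with kanamycin/ampicillin (± nourseothricin), and growth scored after 48 h at 30° C.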

Where only a bound is given, the exact number is not on record here.

B1: malQ gRNA (BMC stem-loop + 24 nt spacer) ; malQ protospacer (ssRNA ; dsDNA)
RNA: GAUUUCUACUAUUGUAGAUGUGGCGGUACGUUGAUGCAUCGCG
DNA 1: GTGGCGGTACGTTGATGCATCGCG
DNA 2: CGCGATGCATCAACGTACCGCCAC
In turn, B1 came in with an activity of over 99.9 % colony reduction.

Source of the values: patent publication US20250277199, “NOVEL CRISPR-CAS NUCLEASES FROM METAGENOMES” (Brain Biotech AG, published 2025).
